Experimental data: the domain aggregation screens of Martell et al. (2025)

Experiment: soluble fraction after stress (log2 fold change); higher = more stays soluble; pooled small domains, quantitative proteomics
Conditions: stress: 75 degC
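Further: 20 min heating vs room temperature control held 20 min.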

Row | Sequence | soluble fraction (log2)
1 | HMVTPAQQARDTLLGALVGLARATTSEPKTDDTDVVLNAGLRLAAQPDAPEERLQRMLAIVQTEKHRV | 0.138
2 | HMVTVNAFGKSGPEPAAMTKEALAKGADEVRVIVDSPTAAASVRDFLIGAGLRVQLQDDEGQLIVVGEKK | 0.318
3 | HMVVDEQRIQTLVSAAEQNSSDPVPRVTLGNLYFDAEQFEEAVKWYEQALALDPRNVNVSTDLGVGYYY | 0.113
4 | HMVVKLTQEQDRFIKTFNDKSLAFYYISSWGWGSFLRNGIGGVYEGDKTPFTLDEKEKMLNAIINGYEVI | -2.02
5 | HMVVKSPLEMAFDKFREMRKKIRKPMTERAEELIWKELSKLAGEDSDLKIEILEQSIRNGWQDVYAVK | -0.623
6 | HMVVLPGEVVALKIIQTGSSKDQGVGYLEDGTMVVVDGAKNSIGKTIEIQISRSHQTVAGRMLFGIAMS | -2.72
7 | HMVVQTELVRISITSLSGEDIRRLVQIKVVGATIEPFEGGGFLITGTAEQIAKAKDFLNSMSTEF | -2.42
8 | HMVVRKHDRYYTPEHRKLLMDTYERTNKYPTKQDMSELAKIIGVLPIKILWWYTHRRRQDRRKGEESSSP | 0.0496
9 | HMVVTMEKIVVNDGGIRIDTYLADKLNISRSKVAKMLENNILVNNVKVKPSYKVTNNDIIEVEEYV | -1.86
10 | HMVVVLPGETIKIDLIREGKDKQALGYLEDGTMIVVDNAKHLIGKNVEIEIDNVLPKEAGRVIFASLHGA | -0.388
11 | HMVVVMNADAEADEIKRVKWNLEQMLFRTQVIYGVKRIVIGAIGDQREVDLSEIEQMPKVDKIVRISK | -2.24
12 | HMVVVPDVKGLKIEEAAEFFKNNNLHYNVIDSVFSKDVEPGAIVELSPLAGSKVKEGRIVFITVNALTS | -1.12
13 | HMVVVVELTENEKAVQDVLTKNEGSLEISDLKTKLELSGKQWDKALKGLAKHGITQVAKVDGVVTVSL | -0.381
14 | HMVWMIEKDQSVILVNKLERIQVEALGKALENGNFGDRIRVINNKSGQKLLGIVESEKKIQIISKI | -2.92
15 | HMVYLPGEEIPLKIIQEGKESGQGVGYLEDGTMVVVENGRRYLNQEVLVQVTKILQTNAGRLIFAVP | -2.6
16 | HMVYLPSSIKNIPTKYGEMMVANFKMDELQANSKNGWVSMVISERREPSEKGATHYAYVNTY | 0.484
17 | HMVYNQYILTQSVRLREEPGISGRVIRLLETGTTVELVDTVVVNKDDYDWVWVKLSDGAVGWIIKSAIDI | -1.57
18 | HMWDEMKDQKLVEALLLLREDERKLIYQHVFEERTFDDISRINGLPPYKVKGIYYYAIRKIRKWMG | -2.26
19 | HMWGQDVLFTIDKKEFKGKLLEQSDKHTTFLPDGQKTPQKIPNRLIKEIHLGSNKIIDFGNDFLI | -0.19
20 | HMWPDDAIALPTRDGQDVGGAQERTMLAFASGAAGIRTVEEINPDGSITRLRTRYGWPTFETEGARTAAAE | -0.0272
21 | HMWTIDPLDWKTENADQIVEKVMSEAKENAIILLHDRYEASVEAALRIVDLLKEQGYTFVTADKLV | -0.154
22 | HMWTKKELWNAIAKLPKKQRTVVMMRIAQNLPYKDISEITGMSIGSAKVNYHHAVNSLKQWLS | -0.746

Row | Sequence | soluble fraction (log2)
23 | HMWTPLVVAVLIGGTHRFGELRAAVGGITPKVLTETLRSMERDGLVVREQTPGVPPRVDYALTPLGA | -0.493
24 | HMYAGTWISESGQWKYRNDDGSFAKGWFQDLDSRWYYFDANGHMLSDTLTPDGYRLGEDGAWVND | 0.0742
25 | HMYDESVFTGEYHYYYEKLSDDDKLIYRQIYAMMQKRMDGISLNTTDTDNVSRIQQFVLLDNPQF | -2.61
26 | HMYDKKVFRLLFILNQLDSRKKVSTGELAKEFNVSPRTVQRDIVLLNTTGFPIISLEKGYHSFMEGFSLK | -1.19
27 | HMYDPVNEIGRVLKKIRQERSLTLDNVAEITGVSKTMLGQIERGVSVPTISVLWKIAKGLQVSLSTLLNE | -3.24
28 | HMYEGLPVTLIIDGRVIEANLAKANRDMAWLERELANSGVRSHHDVFFATLDSRGQLYYQVKN | -1.04
29 | HMYELDIYPNPAIDKINVLLPSSTTLPVKVEIYDIMGKKVNSLLTTKKAFTIETDQFEKGIYFVKA | 0.331
30 | HMYELREGDVVSVRILSQTGQNSYIASFAGGRFSVTSERAFAPGTVFSASVSLKDGTLVLSPL | -3.6
31 | HMYFEDEELDRFVGTPAGAYTEEDVEEFRDVLLSLDIEEVPSWVRSLQLRGIDFPETLRPELYLL | -3.01
32 | HMYGQEVKVLGLFGDRAFIKVDEKSAVIRIGQSHQNVQLKSISNQKAILLVDNKDIALGLGDSYQSA | -1.69
33 | HMYGVAEFDEKGNVLSIEEKPVQPKSNYAVVGLYFYPNKVVGVASGIKPSARGELEITTVNQTFLRDEELK | 0.204
34 | HMYHNKFADLAGFIAFNEKNEEIFTFGKYKGQNVKEVFQRDIGYYGWLQNADFPLYTKKVFTAIQLRSR | -2.44
35 | HMYHPGFEALREVARQGSFIKAARALGISGPAVSKQIKSLEARLNLVLLHRTTRAVTLTEAGQRLTEILD | -2.14
36 | HMYIDNVTIYDVGFNERIVHALERAGVKNLYDLSQMNFYQLQRIRNLGASSLEKVINRIHSYGILLKNES | -0.902
37 | HMYIEKTAYINDTAVNVRKSATTDSDVIKVLALNTEITIIGEENDWYKVKSGNDIGYIAKRLVSDQKKE | -0.187
38 | HMYIKYETVLQNITERIAALRKNGTLVLDGERTLAAEFDASRGTIRKAMRQLEENGTILREGYVTRILPE | -1.95
39 | HMYIVVPDLSKKDINEVANILAAQSLRFQVIDSANFRSDFPKNAVISQKPLAGSEVKVNKKIYLQLNPS | -0.43
40 | HMYLEARVKSTTPILSKPNELGKSLGKLYTNDFVALVSLHKNGLDSYYRTANGGYINAADVVIDRDV | -1.49
41 | HMYLPLREVVFNALRTAIIHGEFKPGERLMEMHLAKSLGVSRTPVREAMRMLELEGLVVMIPKKGAEVAR | -2.93
42 | HMYMKMNDRIRSRRKELKMTQSVLAKLVGVNRVTITGWESGDYKPGGENLQALAAALEKTPQWLLDGKD | -2.82
43 | HMYMTTADADMWKYVNTGRYNNDIQLMEEYKNRSMDSFEVITPEQQRKYNKAAMNLNSYYAWADPSYKPNP | -0.483
44 | HMYMWQVEDLLRANELDIENIKKTIIDHYQLDDAQKSELTRWYEDLINMMRLEGVTKEGHLQINK | -2.02

Row | Sequence | soluble fraction (log2)
45 | HMYNSYALTARELELVNYVLKGNSRREMAEDSGLKENTVASYMKRLYRKIKVHSRKELKELFM | -0.151
46 | HMYPDNEQTLSKLAFEFFKKRNIPISQSNINQIVTKSLGDRENLYNELLKIENFSTSGKKLTDNVIKKLIN | -0.0858
47 | HMYPFSEETLKEKIREYLKTNRSINRRVLEREFYIRKQTALNWLNRLVDSGFLIKEGVRNSPVYFLAE | -0.884
48 | HMYPMQNYSTIIGVIELRQQSVGYATTQKRYGIGSSTVTLIMKRFKELGLTLEELRAMPPKAVEVAFYPPE | -1.69
49 | HMYPNEFPRKVMSVFESSGLEMFRTIEMLLAIPEYETPLPYGSGVSRSDIFVLAKSAGNLVSITV | -0.117
50 | HMYQFFVDPGQIQGKRVTITGSDVNHIKNVLRMRIGEEIAVSNGKDGLEYRFGIDEILEDEVIGTLRFVKE | -1.61
51 | HMYRIGELAKLADVTPDTIRYYEKQQMMDHDVRTEGGFRLYSDNDLQRLKFIRYARQLGFTLEAIRELLSI | -2.27
52 | HMYRWSEEIFEKLRSDIMAALDLSREQNDEEIYRFIETEVEEYSQNNLLTLKEREQLEHLLFNSL | -1.44
53 | HMYSKVSFTVSVGMTSERVSASLKALGIIDDSAKFNRYLVSNGYSTRIKVGTVELQAGQSYAEIASKLV | -3.88
54 | HMYSLSELERIKNFLTGYMSDYSIMMLDANEITNQVDISLKDYSDDNIESIKAAVLSHGGKTDYLNFIDDS | -0.926
55 | HMYSQEEKRYMEIMEIKPQELSAENLKKQYKKLVKKYHPDLHQDDKQAAEEKFKQLTNAYQVLMRRF | -0.474
56 | HMYSSASKEEIDQLMKRLILNLDAKGYFWPQDKEKSLKLYLHNLFSKLPLNSSDIRFLHGLIRALSEE | -1.3
57 | HMYSSIIGIAFTRAENKPAAPTGGSYSNPHPVDGNWKAAPYDGDGNLWYSIRHFNENVDIQDREWSDPTLG | -0.238
58 | HMYSYSGSVINTYKVPVSVVLKDANGSAIASWDLPVDQSLGISAKDIATSSGTIEITGDGVNETKTVTFTK | -0.12
59 | HMYTGSEGMAGLEGRAVTEVGPEAGTVLVKGEYWQARSDEPIATDRKIRVIRLEGLRLRVAEIHPEG | -0.45
60 | HMYTPDYLSDLMVRMAHHSTAIEGNTLTQGETKSVLVDGYIPRAMDMRELNEVLNYKAFMTFLVE | -0.0939
61 | HMYTTHTQSELNEAARFNGRATYQKGIYYNESKKEHFKVVNGKYQALPNVKQVNGDSWIDKTGITHKG | -0.324
62 | HMYTVQQLARLAGITPRTLRHYDAIGLLKPTRVGENGYRYYGSEALLRLQSILLYRELDMPLEDIRRVLDS | -3.5
63 | HMYVPEVPVPDLLGRSEEEAKNLIEDLGLVFKVSKREYSKEYDEGHVMEQSVDEGAKVKENYPVEVVISR | 0.181
64 | HMYYDDEELDDYRGKASDAYTAAEVEQFEEVLTTMRPEEVHGWLRSLQLRGVALPDALKDEAYMIVSEQAE | -0.0106
65 | HMYYIITNGKYWVIENPIRPGEYMESTKSSNAKQFTFKQAKNLLNARSKKLGWIRNGYSMVGED | -2.46
